In patent US20210024640A1:

Key:
[1] = biological target: OX40 on HT1080 OX40 stable cell line (Homo sapiens (Human)) (UniProt P43489)
[2] = biological target: OX40 on HT1080 OX40 stable cell line (Homo sapiens (Human)) (UniProt P43489); remark: listed apart in the source

OX40 on HT1080 OX40 stable cell line (Homo sapiens (Human)), sequence (P43489 29-277): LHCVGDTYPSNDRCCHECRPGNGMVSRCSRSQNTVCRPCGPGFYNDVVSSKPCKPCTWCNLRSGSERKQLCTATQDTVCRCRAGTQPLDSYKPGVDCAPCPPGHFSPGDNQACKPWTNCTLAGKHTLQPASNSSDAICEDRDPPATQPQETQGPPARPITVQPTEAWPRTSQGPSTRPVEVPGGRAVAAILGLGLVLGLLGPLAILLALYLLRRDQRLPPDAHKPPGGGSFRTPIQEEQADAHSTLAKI

Question: What does the source list for OX40L-Fc (Fc fusion)?
Answer: EC50 (read off the curve), IL-8 secretion, agonist assay control [1]: 0.3 nM; EC50 (read off the curve), IL-8 secretion, antagonist assay control (ligand titration) [2]: 0.3 nM
